Laboratory results: US9962447

How the values were obtained:
Experiment in all cases: cell-based or functional assay
[1] = molecular target: human DOP receptor (human) (UniProt P41143)
[2] = molecular target: human NOP recombinant receptor (N/OFQ peptide receptor) (human) (UniProt P41146)
[3] = molecular target: human KOP receptor (human) (UniProt P41145)
[4] = molecular target: human MOP receptor (human) (UniProt P35372)
[5] = molecular target: native mouse NOP receptor (mouse vas deferens) (mouse) (UniProt P35377)
Sequence of native mouse NOP receptor (mouse vas deferens) (mouse) (P35377 whole entry): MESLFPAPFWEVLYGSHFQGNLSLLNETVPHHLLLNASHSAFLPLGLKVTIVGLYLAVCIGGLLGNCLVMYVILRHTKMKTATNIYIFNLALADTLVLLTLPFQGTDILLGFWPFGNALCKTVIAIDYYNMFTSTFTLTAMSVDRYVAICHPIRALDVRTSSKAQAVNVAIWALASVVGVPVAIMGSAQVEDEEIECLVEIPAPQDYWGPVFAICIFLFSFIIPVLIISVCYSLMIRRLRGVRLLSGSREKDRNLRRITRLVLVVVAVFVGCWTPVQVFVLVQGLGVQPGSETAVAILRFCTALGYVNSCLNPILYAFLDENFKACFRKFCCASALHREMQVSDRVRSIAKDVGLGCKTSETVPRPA

Sequence of human DOP receptor (human) (P41143 whole entry): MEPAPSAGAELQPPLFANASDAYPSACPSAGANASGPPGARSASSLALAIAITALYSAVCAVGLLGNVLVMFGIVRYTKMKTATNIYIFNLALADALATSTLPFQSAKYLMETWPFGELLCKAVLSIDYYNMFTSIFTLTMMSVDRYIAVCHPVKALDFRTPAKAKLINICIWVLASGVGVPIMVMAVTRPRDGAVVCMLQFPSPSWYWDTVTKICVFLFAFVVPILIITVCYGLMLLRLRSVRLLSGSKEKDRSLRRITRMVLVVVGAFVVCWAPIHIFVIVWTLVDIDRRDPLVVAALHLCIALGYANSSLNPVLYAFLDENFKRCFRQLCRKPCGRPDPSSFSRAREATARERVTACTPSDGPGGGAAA
Sequence of human NOP recombinant receptor (N/OFQ peptide receptor) (human) (P41146 whole entry): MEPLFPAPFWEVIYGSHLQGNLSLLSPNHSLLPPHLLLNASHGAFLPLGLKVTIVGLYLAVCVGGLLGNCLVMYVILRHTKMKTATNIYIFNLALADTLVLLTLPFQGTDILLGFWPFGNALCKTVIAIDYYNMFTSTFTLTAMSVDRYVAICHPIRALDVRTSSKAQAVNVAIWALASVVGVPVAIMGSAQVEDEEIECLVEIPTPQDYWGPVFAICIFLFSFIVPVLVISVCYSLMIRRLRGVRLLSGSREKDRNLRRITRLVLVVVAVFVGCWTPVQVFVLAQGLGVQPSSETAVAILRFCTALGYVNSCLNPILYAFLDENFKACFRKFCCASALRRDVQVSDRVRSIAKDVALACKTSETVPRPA
Sequence of human KOP receptor (human) (P41145 whole entry): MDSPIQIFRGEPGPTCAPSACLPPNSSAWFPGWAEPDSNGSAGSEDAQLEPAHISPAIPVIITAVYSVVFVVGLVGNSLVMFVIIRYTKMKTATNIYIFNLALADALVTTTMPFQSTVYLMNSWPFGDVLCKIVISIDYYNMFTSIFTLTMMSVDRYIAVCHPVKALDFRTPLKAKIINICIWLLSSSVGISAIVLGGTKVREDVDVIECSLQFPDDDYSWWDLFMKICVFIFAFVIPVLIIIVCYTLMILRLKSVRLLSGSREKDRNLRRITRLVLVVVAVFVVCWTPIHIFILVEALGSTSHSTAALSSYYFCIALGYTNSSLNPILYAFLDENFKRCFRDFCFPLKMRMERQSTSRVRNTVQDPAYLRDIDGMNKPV
Sequence of human MOP receptor (human) (P35372 whole entry): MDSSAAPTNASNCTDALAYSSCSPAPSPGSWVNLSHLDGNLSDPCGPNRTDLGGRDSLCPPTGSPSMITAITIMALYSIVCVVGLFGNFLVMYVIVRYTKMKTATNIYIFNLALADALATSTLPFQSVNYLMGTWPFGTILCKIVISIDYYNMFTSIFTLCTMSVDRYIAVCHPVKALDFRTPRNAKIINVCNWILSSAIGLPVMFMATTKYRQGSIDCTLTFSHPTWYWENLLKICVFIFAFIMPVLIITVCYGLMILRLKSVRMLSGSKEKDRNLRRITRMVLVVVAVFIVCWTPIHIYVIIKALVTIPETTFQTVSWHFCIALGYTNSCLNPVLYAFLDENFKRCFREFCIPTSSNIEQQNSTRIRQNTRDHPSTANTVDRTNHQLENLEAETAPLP

Substance | calcium mobilization, maximal effects [1] [%] | calcium mobilization, pEC50 (pEC50 (-log10 M)) [1] | calcium mobilization, potency [2] [nM] | calcium mobilization, potency [3] [nM] | calcium mobilization, potency [4] [nM] | calcium mobilization, potency [1] [nM] | electrically stimulated mouse vas deferens, Emax (% inhibition of control twitch) [5] | electrically stimulated mouse vas deferens, pEC50 (pEC50 (-log10 M)) [5] | mouse vas deferens from NOP(+/+) mice, Emax [5] [%] | mouse vas deferens from NOP(+/+) mice, pEC50 (pEC50 (-log10 M)) [5] | calcium mobilization, maximal effects [4] [%] | calcium mobilization, pEC50 (pEC50 (-log10 M)) [4]
PWT2-N/OFQ (supramolecular aggregate of the PWT2 maleimido core with [Cys18]N/OFQ-NH2) (from UniProt Q13519 20-176) | – | – | – | > 1000 | > 1000 | > 1000 | 93 | 7.78 | 91 | 7.92 | – | –
dermorphin (peptide) | – | – | > 1000 | > 1000 | – | > 1000 | – | – | – | – | 135 | –
dynorphin A (from UniProt P01213 207-223) (peptide) | – | – | > 1000 | – | – | – | – | – | – | – | – | 6.67

The next lines start with results.

calcium mobilization, maximal effects [1] [%] | calcium mobilization, pEC50 (pEC50 (-log10 M)) [1] | calcium mobilization, potency [2] [nM] | calcium mobilization, potency [3] [nM] | calcium mobilization, potency [4] [nM] | calcium mobilization, potency [1] [nM] | electrically stimulated mouse vas deferens, Emax (% inhibition of control twitch) [5] | electrically stimulated mouse vas deferens, pEC50 (pEC50 (-log10 M)) [5] | mouse vas deferens from NOP(+/+) mice, Emax [5] [%] | mouse vas deferens from NOP(+/+) mice, pEC50 (pEC50 (-log10 M)) [5] | calcium mobilization, maximal effects [4] [%] | Substance | calcium mobilization, pEC50 (pEC50 (-log10 M)) [4]
86 | 9.57 | > 1000 | > 1000 | > 1000 | – | – | – | – | – | – | DPDPE (peptide) | –
– | – | – | > 1000 | > 1000 | > 1000 | 88 | 7.37 | 92 | 7.68 | – | nociceptin/orphanin FQ (N/OFQ) peptide (from UniProt Q13519 20-176) | –
